Biological target: RecA protein (E. coli)

RecA N-30 (peptide) was tested, and the I50, ATPase activity of the RecA NPF was 600 µM.

From US20060199768A1
